Source: patent publication US12281340B2, “Method of producing N-acyl-amino group-containing compound” (AJINOMOTO CO., INC., priority 2018, dated 2025)

B1: AtGH3-6: indole-3-acetic acid-amido synthetase GH3.6 from Arabidopsis thaliana, expressed in E. coli with N-terminal His-tag (protein, listed as Arabidopsis thaliana)
chain: MPEAPKIAALEVSDESLAEKNKNKLQFIEDVTTNADDVQRRVLEEILSRNADVEYLKRHGLEGRTDRETFKHIMPVVTYEDIQPEINRIANGDKSQVLCSNPISEFLTSSGTSGGERKLMPTIEEELDRRSLLYSLLMPVMDQFVPGLDKGKGMYFLFIKSESKTPGGLPARPVLTSYYKSSHFKNRPYDPYTNYTSPNQTILCSDSYQSMYSQMLCGLCQHKEVLRVGAVFASGFIRAIKFLEKHWPELARDIRTGTLSSEITDSSVREAVGEILKPDPKLADFVESECRKTSWQGIITRLWPNTKYVDVIVTGTMSQYIPTLDYYSNGLPLVCTMYASSECYFGVNLRPLCKPSEVSYTLIPNMAYFEFLPVHRNSGVTSSISLPKALTEKEQQELVDLVDVKLGQEYELVVTTYAGLYRYRVGDVLSVAGFKNNAPQFSFICRKNVVLSIDSDKTDEVELQNAVKNAVTHLVPFDASLSEYTSYADTSSIPGHYVLFWELCLNGNTPIPPSVFEDCCLTIEESLNSVYRQGRVSDKSIGPLEIKMVESGTFDKLMDYAISLGASINQYKTPRCVKFAPIIELLNSRVVDSYFSPKCPKWSPGHKQWGSN
modifications: N-terminal His-tag
notes: indole-3-acetic acid-amido synthetase GH3.6 from Arabidopsis thaliana, expressed in E. coli with N-terminal His-tag
B2: CfHP: hypothetical protein from Cystobacter fuscus (GH3 protein), His-tagged (protein, listed as Cystobacter fuscus)
chain: MQAAGRRDKQRFIEQTRHVARVNVDTLRAILQHNRDTDFGRRHGFASLRTVEDFQRALPVSTYEPFRPYMERIARGEQNVLTADRVEYLGITSGTTGQRKLLPVSRPHLENMRRTMMIGRAVVTEKVPAARRPSRGMILMNAVLRERSEGGLLTGALTAISTHSMGRAASFAFTSPPEAFRLRKHADALYLHLLFGLRERELGTLMAPFASGLLDMVHLLERRGADLVDDIARGVLRPELDLEPEQRRLLQSRLLPDPERAREVSQALEQGPHGLLRRLWPRLAYVSSITGASFSLYTRQLTPYLEGVPLSAASYVSTEGILGVPLELEQAVYCLMVGMAFFEFIPERELDAESPTTLLPEQLVEGEAYEVVLTTQAGLYRYRLGDVVRIVGRYHEAPLMEFLYRRGALLNLMGEKTSEHAARLALEQALATEGLLPADYSVVEETETLPGRYALFVELQEGARPQGAPEQLSRALEEALCRTNPFYEVIRRSERLGAAQLHRVEPGTFQALRDVLVQRGASPTQVKVPRVVRDAELQGLLRQRRVTG
modifications: His-tag
notes: hypothetical protein from Cystobacter fuscus (GH3 protein), His-tagged

Legend:
[1] = Synthesis of N-caprinoylamino acid using purified acylamino acid synthetase, UPLC-MS detection; assay type: biochemical; parameters: key: +: Detected; −: Not detected; conditions: +ATP
In short: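 Purified enzyme (50 μg) with 5 mM amino acid, 5 mM sodium caprate, 10 mM ATP, 10 mM MgCl2, 1 mM DTT in Tris-HCl pH 8.0, 24 h at 25° C; product detected by UPLC-MS (ESI-negative) as the N-caprinoyl amino acid mass signal.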

[2] = Analysis of ATP dependency of acylamino acid synthetase; assay type: biochemical; conditions: for signal of molecular weight corresponding to N-caprinoyl amino acid: in the absence of ATP; for N-caprinoylamino acid detected: in the presence of ATP (10 mM), UV 210 nm
Procedure: 0.25 mL of a reaction solution containing 50 mM Tris-HCl, 5 mM amino acid, 5 mM sodium caprate, 10 mM or 0 mM ATP, 10 mM MgCl2, 1 mM DTT, 50 μg of the purified enzyme, pH 8.0 was incubated at 25° C. for 24 hours. As the amino acid, L-Asp and Gly were used in AtGH3-6 and CfHP, respectively. After completion of the reaction, 0.8 mL of the reaction stop solution (1% (v/v) phosphoric acid, 75% (v/v) methanol) was added to 0.2 mL of the reaction solution, and the mixture was filtrated through the filter followed by being subjected to the UPLC-MS analysis to quantify a produced N-caprinoylamino acid by detection at UV 210 nm. The condition for the UPLC-MS analysis is as described in Example 2. As a result of the analysis, 3.8 mM and […] of the N-caprinoylamino acids were detected in AtGH3-6 and CfHP, respectively in the presence of ATP. However, in the absence of ATP, no signal of the molecular weight corresponding to the N-caprinoylamino acid was detected when any of AtGH3-6 and CfHP was used.

[3] = Synthesis of N-lauroylamino acid / N-lauroylamino acid derivative using purified acylamino acid synthetase, UPLC-MS detection; assay type: biochemical; parameters: key: +: Detected; −: Not detected; conditions: +ATP
[4] = Synthesis of N-capryloylamino acid using washed microbial cell suspension or microbial cell suspension expressing acylamino acid synthetase; assay type: cell-based, E coli BL21(DE3); conditions: UV 210 nm
Procedure: BL21(DE3)/pET-28a-AtGH3-6, BL21(DE3)/pET-28a-OsGH3-8, BL21(DE3)/pET-28a-AtGH3-5, and BL21(DE3)/pET-28a were inoculated to 100 mL of LB medium containing 25 mg/L of kanamycin in a Sakaguchi flask, respectively and cultured with shaking at 37° C. When OD610 reached 0.6, 1 mM IPTG was added, and culturing with shaking was continued at 15° C. for 24 hours.
BL21(DE3)/pET-28a-CfHP was inoculated to 100 mL of LB medium containing 25 mg/L of kanamycin in a Sakaguchi flask, and cultured with shaking at 37° C. When OD610 reached 0.2, 1 mM IPTG was added, and culturing with shaking was continued at 15° C. for 24 hours.
After completion of the culture, microbial cells were collected from 5 mL of the resulting culture medium by centrifugation and washed with 20 mM Tris-HCl (pH 7.6) followed by being suspended in 1 mL of 20 mM Tris-HCl (pH 7.6) to use as a washed microbial cell suspension.
After completion of the culture, 15 mL of the resulting culture medium was concentrated to 3 mL by centrifugation to use as a microbial cell suspension.
0.3 mL of a reaction solution containing 33.3 mM Tris-HCl, 3.3 mM amino acid, 3.3 mM sodium caprylate, 6.7 mM or 0 mM ATP, 6.7 mM MgCl2, 0.7 mM DTT, 30 μg of the microbial cell suspension (cell free extract solution, washed microbial suspension, microbial suspension), pH 8.0 was incubated at 25° C. for 24 hours. As the amino acid, L-Asp was used in AtGH3-6, OsGH3-8, AtGH3-5, and Gly or L-Ala was used in CfHP. After completion of the reaction, 0.8 mL of the reaction stop solution (1% (v/v) phosphoric acid, 75% (v/v) methanol) was added, and the mixture was filtrated through the filter followed by being subjected to the UPLC-MS analysis to detect a signal of a molecular weight corresponding to the N-capryloylamino acid. The condition for the UPLC-MS analysis is as described in Example 2. As a result of the UPLC-MS analysis, the signal of the molecular weight corresponding to the appropriate N-capryloylamino acid was confirmed in the reaction solution using the microbial cell suspension and the like shown in Table 8 below.
As a result of quantifying the produced N-acylamino acid by detection at UV 210 nm, when Gly was used as the substrate in CfHP, 2.8 mM, 2.2 mM and 2.6 mM N-capryloylamino acids were detected in the washed microbial cell suspension, the microbial cell suspension (in the presence of ATP) and the microbial cell suspension (in the absence of ATP), respectively. When L-Ala was used as the substrate in CfHP, 2.4 mM, 0.9 mM and 1.0 mM N-capryloylamino acids were detected in the washed microbial cell suspension, the microbial cell suspension (in the presence of ATP) and the microbial cell suspension (in the absence of ATP), respectively.

[5] = substrates GABA and sodium caprate
[6] = substrates Gly and sodium caprate
[7] = substrates L-Ala and sodium caprate
[8] = substrates L-Arg and sodium caprate
[9] = substrates L-Asn and sodium caprate
[10] = substrates L-Asp and sodium caprate
[11] = substrates L-Cys and sodium caprate
[12] = substrates L-Gln and sodium caprate
[13] = substrates L-Glu and sodium caprate
[14] = substrates L-His and sodium caprate
[15] = substrates L-Ile and sodium caprate
[16] = substrates L-Leu and sodium caprate
[17] = substrates L-Lys and sodium caprate
[18] = substrates L-Met and sodium caprate
[19] = substrates L-Phe and sodium caprate
[20] = substrates L-Pro and sodium caprate
[21] = substrates L-Ser and sodium caprate
[22] = substrates L-Thr and sodium caprate
[23] = substrates L-Trp and sodium caprate
[24] = substrates L-Tyr and sodium caprate
[25] = substrates L-Val and sodium caprate
[26] = substrates β-Ala and sodium caprate

| Molecule | signal of molecular weight corresponding to N-caprinoyl amino acid [1, 5] | signal of molecular weight corresponding to N-caprinoyl amino acid [1, 6] | signal of molecular weight corresponding to N-caprinoyl amino acid [1, 7] | signal of molecular weight corresponding to N-caprinoyl amino acid [1, 8] | signal of molecular weight corresponding to N-caprinoyl amino acid [1, 9] | signal of molecular weight corresponding to N-caprinoyl amino acid [1, 10] | signal of molecular weight corresponding to N-caprinoyl amino acid [1, 11] | signal of molecular weight corresponding to N-caprinoyl amino acid [1, 12] | signal of molecular weight corresponding to N-caprinoyl amino acid [1, 13] | signal of molecular weight corresponding to N-caprinoyl amino acid [1, 14] | signal of molecular weight corresponding to N-caprinoyl amino acid [1, 15] | signal of molecular weight corresponding to N-caprinoyl amino acid [1, 16] | signal of molecular weight corresponding to N-caprinoyl amino acid [1, 17] | signal of molecular weight corresponding to N-caprinoyl amino acid [1, 18] | signal of molecular weight corresponding to N-caprinoyl amino acid [1, 19] | signal of molecular weight corresponding to N-caprinoyl amino acid [1, 20] | signal of molecular weight corresponding to N-caprinoyl amino acid [1, 21] | signal of molecular weight corresponding to N-caprinoyl amino acid [1, 22] | signal of molecular weight corresponding to N-caprinoyl amino acid [1, 23] | signal of molecular weight corresponding to N-caprinoyl amino acid [1, 24] | also measured |
| --- | --- | --- | --- | --- | --- | --- | --- | --- | --- | --- | --- | --- | --- | --- | --- | --- | --- | --- | --- | --- | --- |
| B1 | + | + | + | + | + | + | + | + | + | + | + | + | + | + | + | + | + | + | + | + | signal of molecular weight corresponding to N-caprinoyl amino acid [1, 25]: +; signal of molecular weight corresponding to N-caprinoyl amino acid [1, 26]: +; signal of molecular weight corresponding to N-caprinoyl amino acid ([2]; L-Asp and sodium caprate): no signal; N-caprinoylamino acid detected ([2]; L-Asp and sodium caprate): 3.8 mM; signal of molecular weight corresponding to N-lauroyl amino acid derivative ([3]; substrates Sarcosine and sodium laurate): +; signal of molecular weight corresponding to N-lauroyl amino acid derivative ([3]; substrates Taurine and sodium laurate): + |
| B2 | + | + | + | + | + | + | + | + | + | + | + | + | + | + | + | + | + | + | + | + | signal of molecular weight corresponding to N-caprinoyl amino acid [1, 25]: +; signal of molecular weight corresponding to N-caprinoyl amino acid [1, 26]: +; signal of molecular weight corresponding to N-caprinoyl amino acid ([2]; Gly and sodium caprate): no signal; N-caprinoylamino acid detected ([2]; Gly and sodium caprate): 5.2 mM; N-capryloylamino acid detected ([4]; Gly as substrate, microbial cell suspension (in the absence of ATP)): 2.6 mM; N-capryloylamino acid detected ([4]; Gly as substrate, microbial cell suspension (in the presence of ATP)): 2.2 mM; N-capryloylamino acid detected ([4]; Gly as substrate, washed microbial cell suspension): 2.8 mM; N-capryloylamino acid detected ([4]; L-Ala as substrate, microbial cell suspension (in the absence of ATP)): 1.0 mM; N-capryloylamino acid detected ([4]; L-Ala as substrate, microbial cell suspension (in the presence of ATP)): 0.9 mM; N-capryloylamino acid detected ([4]; L-Ala as substrate, washed microbial cell suspension): 2.4 mM |
